The values below come from patent US20180312587A1 (ADURO BIOTECH HOLDINGS EUROPE B V, published 2018).

For assay [1], the target named is T1, human SIRPα variant 1 (human, UniProt P78324 31-504).
T1 construct: full length ORF on transfected CHO-K1 or HEK293 cells; entry includes the signal peptide; also called hSIRPαV1; SIRPαV1
As to the kind of experiment: CELISA, CHO-K1 transfectants. The procedure:
(§1) Reactivity was confirmed using CHO-K1 cells (ATCC CCL-61) that had been transiently transfected, using Lipofectamine 2000, with cDNA encoding the full length open reading frame of hSIRPαV1, hSIRPαV2, hSIRPβ1, hSIRPβL, and hSIRPγ subcloned into the pCI-neo vector (Promega, Madison, Wis.). CHO-K1.hSIRPαV1, CHO-K1.hSIRPαV2, CHO-K1.hSIRPβ1, CHO-K1.hSIRPβL, and CHO-K1.hSIRPγ cells were seeded in culture medium (DMEM-F12 (Gibco) supplemented with 5% New Born Calf Serum (BioWest) and Pen/Strep (Gibco)) in 96-well flat-bottom tissue culture plates and incubated at 37° C., 5% CO₂ and 95% humidity for 24 hours. Subsequently, culture medium was removed and cells were incubated for 1 hour at 37° C., 5% CO₂ and 95% humidity with purified hSIRPα antibodies (used at 10 μg/mL and dilutions thereof). Next, cells were washed with PBS-T and incubated for 1 hour at 37° C., 5% CO₂ and 95% humidity with goat-anti-mouse IgG-HRP (Southern Biotech). Subsequently, cells were washed three times with PBS-T and immunoreactivity against hSIRPαV1, hSIRPαV2, hSIRPβ1, hSIRPβL, and hSIRPγ was visualized with TMB Stabilized Chromogen (Invitrogen). Reactions were stopped with 0.5 M H₂SO₄ and absorbances were read at 450 and 610 nm.
(§2) The KWAR23 antibody cross-reacts with all members of the SIRP receptor family tested: it binds to hSIRPαV1, hSIRPαV2, hSIRPβ1, hSIRPβL, and hSIRPγ.
Target sequence in this assay (P78324 31-504 limits assumed, change not shown): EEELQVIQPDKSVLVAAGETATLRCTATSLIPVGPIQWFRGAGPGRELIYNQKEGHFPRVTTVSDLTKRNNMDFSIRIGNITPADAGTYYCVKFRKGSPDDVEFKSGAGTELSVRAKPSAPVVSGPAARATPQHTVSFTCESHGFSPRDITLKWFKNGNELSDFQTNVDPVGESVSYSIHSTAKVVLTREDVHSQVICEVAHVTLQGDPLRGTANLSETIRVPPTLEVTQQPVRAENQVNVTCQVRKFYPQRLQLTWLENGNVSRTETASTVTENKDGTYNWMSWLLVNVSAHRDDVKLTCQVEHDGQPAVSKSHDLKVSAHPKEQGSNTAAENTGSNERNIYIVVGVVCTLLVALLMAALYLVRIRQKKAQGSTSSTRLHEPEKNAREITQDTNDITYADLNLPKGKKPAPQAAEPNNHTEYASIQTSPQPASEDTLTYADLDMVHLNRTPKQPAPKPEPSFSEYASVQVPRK

Assay [2] concerns the target T2, human SIRPα variant 2 (human, UniProt P78324 31-504).
T2 construct: full length ORF on transfected CHO-K1 cells; also called hSIRPαV2; SIRPαV2
Put plainly: CELISA, CHO-K1 transfectants. The procedure:
as §1, §2

The target of assay [3] is T3, human SIRPγ (human, UniProt Q9P1W8 29-387).
T3 construct: on transfected CHO-K1 cells; also called hSIRPγ
T3 sequence (Q9P1W8 29-387 limits assumed): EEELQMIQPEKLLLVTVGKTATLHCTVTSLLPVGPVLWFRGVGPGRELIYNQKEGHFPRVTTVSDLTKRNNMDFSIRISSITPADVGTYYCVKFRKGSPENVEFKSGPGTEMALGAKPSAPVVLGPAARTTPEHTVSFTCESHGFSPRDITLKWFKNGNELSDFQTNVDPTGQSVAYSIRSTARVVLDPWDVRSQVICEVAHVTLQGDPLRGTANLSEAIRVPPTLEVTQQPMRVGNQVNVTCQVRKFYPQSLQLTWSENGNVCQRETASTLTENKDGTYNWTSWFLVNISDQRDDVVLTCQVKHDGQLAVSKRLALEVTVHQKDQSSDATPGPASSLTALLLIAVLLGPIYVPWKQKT
As to the kind of experiment: CELISA, CHO-K1 transfectants. The procedure:
as §1, §2

The target of assay [4] is T4, hSIRPβ1 transcript variant 3/hSIRPβL (human, UniProt Q5TFQ8 30-398).
T4 construct: also called human SIRPβL
T4 sequence (Q5TFQ8 30-398 limits assumed, change not shown): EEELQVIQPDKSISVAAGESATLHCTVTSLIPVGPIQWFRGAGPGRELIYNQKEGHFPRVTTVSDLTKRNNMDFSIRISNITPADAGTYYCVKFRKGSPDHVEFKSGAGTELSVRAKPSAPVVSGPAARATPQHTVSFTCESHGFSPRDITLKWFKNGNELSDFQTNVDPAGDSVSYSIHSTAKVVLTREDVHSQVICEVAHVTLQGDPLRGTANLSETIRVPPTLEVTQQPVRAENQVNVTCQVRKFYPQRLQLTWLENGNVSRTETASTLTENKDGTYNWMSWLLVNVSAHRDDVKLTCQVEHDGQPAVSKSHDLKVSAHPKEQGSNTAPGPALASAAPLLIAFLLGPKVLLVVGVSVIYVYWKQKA
As to the kind of experiment: CELISA, CHO-K1 transfectants. The procedure:
as §1, §2

Assay [5] deals with T3, human SIRPγ. Put plainly: flow cytometry, Jurkat E6.1 cells. The procedure: Binding to hSIRPγ was assessed by flow cytometry using the Jurkat E6.1 T cell leukemia cell line (ECACC 88042803). Jurkat cells were seeded in 96-well round bottomed tissue culture plates and incubated for 40 minutes with the anti-hSIRPα antibodies (20 μg/mL and dilutions thereof) in PBS/1% BSA at 4° C. […] After this labeling procedure, cells were washed two times, resuspended in PBS/1% BSA, containing 0.1 μg/mL DAPI (BioLegend), and analysed by flow cytometry on the FACSVerse (BD Biosciences). Data were processed and analysed with FlowJo V10 software (FlowJo, LLC).

The target in assay [6] is T1, human SIRPα variant 1. Put plainly: flow cytometry, blockade of DyLight488-hCD47/Fc binding to U-937 cells. The procedure:
hCD47 blockade for the KWAR23, clone 18D5, and hSIRPα.40A antibodies was assessed by flow cytometry. For this purpose, THP-1 (ATCC TIB-202) and U-937 (ATCC CRL-1593.2) monocyte cell lines were used as the source of hSIRPα in the assay. THP-1 and U-937 cells were seeded in 96-well round bottomed tissue culture plates and incubated for 45 minutes with FcR Blocking Reagent (Miltenyi Biotec) and indicated anti-hSIRPα antibodies (20 μg/mL and dilutions thereof) in PBS/1% BSA at 4° C. […] After this labeling procedure, cells were washed two times, resuspended in PBS/1% BSA containing 0.1 μg/mL DAPI (BioLegend), and analysed by flow cytometry on the FACSVerse (BD Biosciences). Data were processed and analysed with FlowJo V10 software (FlowJo, LLC) and plotted using GraphPad Prism 6 (GraphPad Software, Inc.). Binding of recombinant hCD47 fused to an Fc domain of human IgG1 was monitored in the presence of increasing amounts of the anti-hSIRPα antibodies. […] IC50 values represent the concentration at which half of the inhibition is observed.

In assay [7] the target is T2, human SIRPα variant 2. As to the kind of experiment: CELISA, CHO-K1 transfectants; average of two experiments. The procedure: (§3) The binding specificity of antibodies hSIRPα.40A and hSIRPα.50A to hSIRPα were compared in a CELISA format. In short, CHO-K1 cells were transiently transfected with hSIRPαV1, hSIRPαV2, hSIRPβ1, hSIRPβL, and hSIRPγ cDNAs. Subsequently, hSIRPα binding was assessed by CELISA using CHO-K1.hSIRPαV1, CHO-K1.hSIRPαV2, CHO-K1.hSIRPβ1, CHO-K1.hSIRPβL, and CHO-K1.hSIRPγ cells. Detection of bound antibody was done with goat-anti-mouse IgG-HRP (Southern Biotech).

The target in assay [8] is T3, human SIRPγ. Described as above. The procedure:
as §3

Assay [9] concerns the target T2, human SIRPα variant 2. Put plainly: flow cytometry, blockade of DyLight488-hCD47/Fc binding to THP-1 cells. The gist of the method:
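THP-1 or U-937 monocyte cells were placed in 96-well round-bottom plates and incubated at 4 °C for 45 minutes in PBS/1% BSA containing FcR Blocking Reagent and a dilution series of anti-SIRPα antibody. After a further wash, cells were resuspended with 0.1 μg/mL DAPI, read by flow cytometry and analyzed in FlowJo. IC50 is defined as the antibody concentration that gives half-maximal inhibition of CD47/Fc binding.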

T2 sequence (P78324 other isoform, or with tags, fused parts or gaps mutant limits assumed): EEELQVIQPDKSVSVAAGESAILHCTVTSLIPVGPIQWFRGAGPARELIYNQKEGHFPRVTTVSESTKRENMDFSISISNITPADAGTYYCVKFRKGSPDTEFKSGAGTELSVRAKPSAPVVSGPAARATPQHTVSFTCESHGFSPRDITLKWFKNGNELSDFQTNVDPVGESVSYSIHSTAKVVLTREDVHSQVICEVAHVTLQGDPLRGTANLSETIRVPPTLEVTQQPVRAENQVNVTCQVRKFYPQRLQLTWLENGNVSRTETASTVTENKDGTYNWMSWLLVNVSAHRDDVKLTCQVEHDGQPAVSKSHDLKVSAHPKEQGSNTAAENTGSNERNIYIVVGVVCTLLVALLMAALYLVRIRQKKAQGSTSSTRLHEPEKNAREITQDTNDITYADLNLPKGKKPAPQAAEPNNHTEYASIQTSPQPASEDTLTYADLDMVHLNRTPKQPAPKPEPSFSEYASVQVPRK

B1: KWAR23 (antibody, V domains shown)
VH: EVQLQQSGAELVKPGASVKLSCTASGFNIKDYYIHWVQQRTEQGLEWIGRIDPEDGETKYAPKFQDKATITADTSSNTAYLHLSSLTSEDTAVYYCARWGAYWGQGTLVTVSS
VL: QIVLTQSPAIMSASPGEKVTLTCSASSSVSSSYLYWYQQKPGSSPKLWIYSTSNLASGVPARFSGSGSGTSYSLTISSMEAEDAASYFCHQWSSYPRTFGAGTKLELK
In the case of B1, the 50% effective concentration (EC50) in the assay with human SIRPα variant 1 [1] amounted to 0.067 nM; in the assay with human SIRPα variant 2 [2], 0.062 nM; with human SIRPγ [3], 0.043 nM; in [4] it was 0.097 nM; with human SIRPγ [5], 0.003 nM. In addition, the IC50 in the assay with human SIRPα variant 1 [6] worked out at 0.284 nM.

B2: hSIRPα.50A (antibody, V domains shown)
VH: QVQLQQSGPELVKPGASVRISCKASGFTFTNYYIHWVKQRPGQGLEWIGWIYPGNVNTKYNEKFKAKATLTADKSSTTAYMQLSSLASEDSAVYFCARPTIIATDFDVWGAGTTVTVSS
VL: DIVMTQSHKFMSTSVGDRVNITCKASQGVGTAVGWYQQKPGQSPRLLIYWASTRHTGVPDRFTGSGSGTDFSLAISNVQSEDLADYFCQQYSTYPFTFGGGTNLEIK
notes: light chain constant domain not tied; also called mouse hSIRPα.50A; hSIRPα.50A.mIgG1
As for B2, the EC50 in the assay with human SIRPα variant 1 [1] worked out at 1.63 nM; in the assay with human SIRPα variant 2 [2], 1.63 nM; with human SIRPγ [3], 1.48 nM; in assay [4], 0.639 nM; with human SIRPα variant 2 [7], 1.16 nM; with human SIRPγ [8], 1.99 nM. In the assay with human SIRPα variant 2 [9], this molecule yielded a 50% inhibitory concentration (IC50) of 7.83 nM.

B3: hSIRPα.40A (antibody, mouse IgG1, kappa, V domains shown)
VH: EVQFQQSGTVLARPGTSVKMSCKASGSTFTSYWMHWVKQGPGQGLQWIGAIYPVNNDTTYNQKFKGKAELTVVTSTSTAYMEVSSLTNEDSAVYYCTRSFYYSLDAAWFVYWGQGTLVTVSA
VL: DIQMTQSPSSLSASLGERVSLTCRASQDIGSRLNWLQQEPDGTIKRLIYATSSLDSGVPKRFSGSRSGSDYSLTISGLESEDFVDYYCLQYASSPFTFGGGTKLEINR
notes: mouse antibody, full chains without signal peptide; also called mouse hSIRPα.40A
Regarding B3, the figures for the EC50 with human SIRPγ [5], with human SIRPα variant 2 [7] and with human SIRPγ [8] were 0.369 nM, 0.088 nM and 0.099 nM, respectively. Also, the IC50 was 0.646 nM in the assay with human SIRPα variant 2 [9] and 1.42 nM with human SIRPα variant 1 [6].
